{"source": "patent US20240110201A1", "about": "(SPARK THERAPEUTICS, published 2024)", "target": "T1, C1-esterase (reagent of the Technochrom C1-INH kit, Diapharma 5345003) (human, UniProt P09871 16-688, limits assumed)", "T1 sequence (looked up)": "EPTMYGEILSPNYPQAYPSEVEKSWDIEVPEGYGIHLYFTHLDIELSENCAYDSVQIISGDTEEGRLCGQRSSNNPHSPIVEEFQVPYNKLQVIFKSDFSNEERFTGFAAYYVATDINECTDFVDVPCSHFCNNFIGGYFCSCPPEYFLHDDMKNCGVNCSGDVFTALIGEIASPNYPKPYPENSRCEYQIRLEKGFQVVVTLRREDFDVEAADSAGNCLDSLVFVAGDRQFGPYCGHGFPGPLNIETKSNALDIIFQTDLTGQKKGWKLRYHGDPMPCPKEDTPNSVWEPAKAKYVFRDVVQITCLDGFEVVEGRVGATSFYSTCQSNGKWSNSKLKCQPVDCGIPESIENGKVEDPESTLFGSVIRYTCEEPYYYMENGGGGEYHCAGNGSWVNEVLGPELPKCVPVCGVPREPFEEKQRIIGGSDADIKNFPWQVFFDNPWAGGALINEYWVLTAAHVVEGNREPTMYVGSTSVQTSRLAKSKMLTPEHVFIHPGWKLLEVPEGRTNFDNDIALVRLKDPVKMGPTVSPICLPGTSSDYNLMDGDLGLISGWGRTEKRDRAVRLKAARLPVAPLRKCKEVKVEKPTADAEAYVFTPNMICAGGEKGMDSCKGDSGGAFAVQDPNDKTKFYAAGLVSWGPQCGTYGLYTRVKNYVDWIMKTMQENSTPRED", "assay": "cell-based or functional assay"}
{"binder": "human C1 inhibitor (transgene product secreted into plasma after administration of AAV-encapsidated SERPING1 expression cassettes) (other) NPNATSSSSQDPESLQDRGEGKVATTVISKMLFVEPILEVSSLPTTNSTTNSATKITANTTDEPTTQPTTEPTTQPTIQPTQPTTQLPTDSPTQPTTGSFCPGPVTLCSDLESHSTEAVLGDALVDFSLKLYHAFSAMKKVETNMAFSPFSIASLLTQVLLGAGENTKTNLESILSYPKDFTCVHQALKGFTTKGVTSVSQIFHSPDLAIRDTFVNASRTLYSSSPRVLSNNSDANLELINTWVAKNTNNKISRLLDSLPSDTRLVLLNAIYLSAKWKTTFDPKKTRMEPFHFKNSVIKVPMMNSKKYPVAHFIDQTLKAKVGQLQLSHNLSLVILVPQNLKHRLEDMEQALSPSVFKAIMEKLEMSKFQPTLLTLPRIKVTTSQDMLSIMEKLEFFDFSYDLNLCGLTEDPDLQVSAMQHQTVLELTETGVEAAAASAISVARTLLVFEVQQPFLFVLWDQQHKFPVFMGRVYDPRA", "values": [{"measurement": "C1-INH activity, chromogenic assay of residual C1-esterase activity, reported as percentage of activity relative to a coagulation reference standard", "result": 766, "unit": "% activity"}]}
